The record followed here is patent US20220332770A1 (UNIVERSITY OF RHODE ISLAND BOARD OF TRUSTEES, published 2022).

Experiment [1] deals with murine TLR5 (HEK293 cells co-transfected with murine TLR5 and SEAP reporter gene) (murine) (UniProt Q9JLF7). The experiment is described as follows: cell-based or functional assay.
Experiment [2] has as its target murine TLR5 (HEK293 cells co-transfected with murine TLR5 and SEAP reporter gene) (murine, UniProt Q9JLF7 27-859). The experiment is described as follows: cell-based or functional assay.

Sequence of murine TLR5 (HEK293 cells co-transfected with murine TLR5 and SEAP reporter gene) (Q9JLF7 27-859): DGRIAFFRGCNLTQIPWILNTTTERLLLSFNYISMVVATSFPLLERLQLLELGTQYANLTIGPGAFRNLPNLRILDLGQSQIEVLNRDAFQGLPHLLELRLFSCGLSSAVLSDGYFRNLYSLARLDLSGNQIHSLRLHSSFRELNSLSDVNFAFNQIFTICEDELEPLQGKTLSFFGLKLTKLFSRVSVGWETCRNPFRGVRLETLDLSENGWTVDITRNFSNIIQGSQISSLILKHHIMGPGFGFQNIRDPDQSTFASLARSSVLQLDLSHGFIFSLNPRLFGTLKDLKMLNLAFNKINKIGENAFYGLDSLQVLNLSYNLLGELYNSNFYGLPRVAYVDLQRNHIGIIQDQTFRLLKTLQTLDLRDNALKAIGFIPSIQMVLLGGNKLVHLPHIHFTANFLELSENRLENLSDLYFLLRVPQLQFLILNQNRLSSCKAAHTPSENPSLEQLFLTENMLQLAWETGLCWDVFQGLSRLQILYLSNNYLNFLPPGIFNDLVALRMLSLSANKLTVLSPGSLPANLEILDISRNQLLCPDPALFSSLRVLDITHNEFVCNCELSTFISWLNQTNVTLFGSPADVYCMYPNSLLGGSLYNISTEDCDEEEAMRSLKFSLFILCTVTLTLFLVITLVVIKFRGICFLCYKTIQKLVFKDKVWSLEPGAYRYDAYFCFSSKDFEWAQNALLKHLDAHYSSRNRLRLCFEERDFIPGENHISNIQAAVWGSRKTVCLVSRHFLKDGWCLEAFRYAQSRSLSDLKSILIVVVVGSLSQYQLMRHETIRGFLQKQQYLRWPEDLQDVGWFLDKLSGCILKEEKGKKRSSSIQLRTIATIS
Sequence of murine TLR5 (HEK293 cells co-transfected with murine TLR5 and SEAP reporter gene) (murine) (Q9JLF7 27-859): as above

In turn, “Recombinant FljB (phase 2 flagellin of S. Typhimurium strain LT2) (from UniProt P52616 1-506) (ligand)” came in with a lowest concentration to significantly activate TLR5 (SEAP reporter, OD620nm) in experiment [1] of 8 pM. The molecule “FLA-ST (ultrapure FliC purified from S. Typhimurium, Invivogen) (from UniProt P06179 2-495) (ligand)” had a lowest concentration to significantly activate TLR5 (SEAP reporter, OD620nm) in experiment [1] of 40 pM.

B1: FljB-HBc fusion protein, self-assembled into FH VLPs (other)
chain: MDIDPYKEFGASVELLSFLPSDFFPSIRDLLDTASALYREALESPEHCSPHHTALRQAILCWGELMNLATWVGSNLEDPAGGGGSGGGGSAQVINTNSLSLLTQNNLNKSQSALGTAIERLSSGLRINSAKDDAAGQAIANRFTANIKGLTQASRNANDGISIAQTTEGALNEINNNLQRVRELAVQSANSTNSQSDLDSIQAEITQRLNEIDRVSGQTQFNGVKVLAQDNTLTIQVGANDGETIDIDLKQINSQTLGLDSLNVQKAYDVKDTAVTTKAYANNGTTLDVSGLDDAAIKAATGGTNGTASVTGGAVKFDADNNKYFVTIGGFTGADAAKNGDYEVNVATDGTVTLAAGATKTTMPAGATTKTEVQELKDTPAVVSADAKNALIAGGVDATDANGAELVKMSYTDKNGKTIEGGYALKAGDKYYAADYDEATGAIKAKTTSYTAADGTTKTAANQLGGVDGKTEVVTIDGKTYNASKAAGHDFKAQPELAEAAAKTTENPLQKIDAALAQVDALRSDLGAVQNRFNSAITNLGNTVNNLSEARSRIEDSDYATEVSNMSRAQILQQAGTSVLAQANQVPQNVLSLLRGGGGSGGGGSSRELVVSYVNVNMGLKIRQLLWFHISCLTFGRETVLEYLVSFGVWIRTPPAYRPPNAPILSTLPETTVVLEHHHHHH
On to B1, for which, in experiment [2], the “fold reduction of TLR5 activation ability against FLA-ST” value was determined as 25 fold and the “fold reduction of TLR5 activation ability against FljB” value was > 100 fold.
